In article PMC10695398 (PLOS Pathogens, 2023):

Molecular target: T1, His6-tagged STAT3, bacterially derived (UniProt P40763 1-770)
T1 construct: also called His6-STAT3; His6-St3; source: E. coli BL21(DE3), purified (Ni-NTA, eluted with imidazole)
Assay: pull-down
Conditions: both partners purified

T1 sequence (P40763 whole entry): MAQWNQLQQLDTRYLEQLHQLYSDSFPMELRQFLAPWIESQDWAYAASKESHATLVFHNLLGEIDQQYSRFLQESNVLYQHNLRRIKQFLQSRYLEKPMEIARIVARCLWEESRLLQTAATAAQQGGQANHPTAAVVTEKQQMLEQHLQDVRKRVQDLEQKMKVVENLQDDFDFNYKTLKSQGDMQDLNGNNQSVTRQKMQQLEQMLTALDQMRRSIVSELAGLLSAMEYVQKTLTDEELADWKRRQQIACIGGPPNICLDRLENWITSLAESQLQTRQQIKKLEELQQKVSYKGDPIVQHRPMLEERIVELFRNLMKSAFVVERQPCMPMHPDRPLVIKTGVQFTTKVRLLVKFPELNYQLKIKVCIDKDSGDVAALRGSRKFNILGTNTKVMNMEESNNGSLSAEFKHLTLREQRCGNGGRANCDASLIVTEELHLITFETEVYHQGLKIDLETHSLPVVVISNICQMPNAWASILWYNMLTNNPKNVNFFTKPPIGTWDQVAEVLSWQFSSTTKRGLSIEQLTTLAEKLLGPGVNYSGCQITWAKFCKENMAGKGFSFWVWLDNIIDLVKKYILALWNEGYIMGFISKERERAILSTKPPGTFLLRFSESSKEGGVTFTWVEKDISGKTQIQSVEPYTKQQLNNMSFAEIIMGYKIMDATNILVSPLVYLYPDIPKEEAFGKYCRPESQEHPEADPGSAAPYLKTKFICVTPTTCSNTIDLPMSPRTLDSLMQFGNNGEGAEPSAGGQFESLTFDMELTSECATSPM

B1: GST-tagged vIRF-1, bacterially derived (natural protein)
chain: MDPGQRPNPFGAPGAIPKKPCLSQGSPGTSGSGAPCDEPSRSESPGEGPSGTGGSAAAGDITRQAVVAAITEWSRTRQLRISTGASEGKASIKDWIVCQVNSGKFPGVEWEDEERTRFRIPVTPLADPCFEWRRDGELGVVYIRERGNMPVDASFKGTRGRRRMLAALRRTRGLQEIGKGISQDGHHFLVFRVRKPEEEQCVECGVVAGAVHDFNNMARLLQEGFFSPGQCLPGEIVTPVPSCTTAEGQEAVIDWGRLFIRMYYNGEQVHELLTTSQSGCRISSALRRDPAVHYCAVGSPGQVWLPNVPNLACEIAKRELCDTLDACAKGILLTSSCNGIFCVCYHNGPVHFIGNTVPPDSGPLLLPQGKPTRIFNPNTFLVGLANSPLPAPSHVTCPLVKLWLGKPVAVGKLEPHAPSPRDFAARCSNFSDACVVLEIMPKPLWDAMQ
notes: also called GST-fused vIRF-1; vIRF-1-GST
- binding result: binds
